For the assay, the target named is human FGFR1c (FGF receptor 1c isoform) together with human beta-Klotho (KLB) (human) (UniProt P11362). As to the kind of experiment: cell-based or functional assay.

Sequence of mature human wild-type FGF21, FGF21(His29-Ser209) (Q9NSA1 29-209 L174P): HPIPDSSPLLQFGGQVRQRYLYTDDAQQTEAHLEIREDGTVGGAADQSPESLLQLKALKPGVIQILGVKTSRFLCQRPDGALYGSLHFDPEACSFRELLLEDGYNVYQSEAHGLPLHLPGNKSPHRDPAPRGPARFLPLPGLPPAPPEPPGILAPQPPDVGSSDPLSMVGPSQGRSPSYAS

For the substance “mature human wild-type FGF21, FGF21(His29-Ser209) (from UniProt Q9NSA1 29-209) (ligand)”, the pERK ICW EC50 (nmol/L) was determined as 0.18 nmol/L and the pFGFR ICW EC50 (nmol/L) turned out to be 4.8 nmol/L.

The values above are taken from patent US20240325499A1, “FGF21 COMPOUND / GLP-1R AGONIST COMBINATIONS WITH OPTIMIZED ACTIVITY RATIO” (SANOFI, priority 2018, published 2024).
